Measurements published in patent US20140304847A1.

Target: Ku70 (endogenous full length protein of the human HEK 293 reporter cells) (UniProt P12956)
Experiment: cell-based or functional assay

Substance: truncated Ku80 protein, residues 427-732 of mouse Ku80, expressed from pCAG-Ku80(427-732)-bpA (from UniProt P27641 427-732)
- fold increase of homologous recombination in 293Rab-Rep#4 reporter cells against transfection without the Ku80 fragment: 2 fold
